# Experimental data taken from patent US20210188971A1 (QUIDEL, published 2021).
# Target: T1, L1-10 fusion protein (human)
# T1 construct: also called L1-10, unlabeled; L1-10 antigen
# Experiment: indirect sandwich luminescence ELISA, L1-10 held by anti-MBP or StrepMAb on RAM
# Protocol: Appropriate diluted standards were prepared along with controls and samples in a Assay Diluent in a separate non-sticky plate. 50 μl or 100 μl of each antibody or antigen (at indicated concentrations) were pipetted to the plate wells. Plates were sealed and incubated for 60 minutes at RT (unless otherwise indicated). The plates were washed with PBST 4×. 50 μl/well of Furimazine substrate was pipetted and incubated for 3 minutes at RT.
# The mouse monoclonal antibody served as the anchor for L1-10.
binder,measurement,value
"M22_NLuc_HisTag antibody protein (antibody, human IgG1, lambda, also called M22_Luc; mAb Nluc-His) heavy: not shown light: LTVLTQPPSVSGAPRQRVTISCSGNSSNIGNNAVNWYQQLPGKAPKLLIYYDDQLPSGVSDRFSGSRSGTSASLAIRGLQSEDEADYYCTSWDDSLDSQLFGGGTRLTVLGQPKAAPSVTLFPPSSEELQANKATLVCLISDFYPGAVTVAWKADSSPVKAGVETTTPSKQSNNKYAASSYLSLTPEQWKSHKSYSCQVTHEGSTVEKTVAPTECS",binding result,binds
